# Source: IntAct's records for PubMed 19154346
# B1: Calreticulin (Homo sapiens), P27797 (parent)
# chain: MLLSVPLLLGLLGLAVAEPAVYFKEQFLDGDGWTSRWIESKHKSDFGKFVLSSGKFYGDEEKDKGLQTSQDARFYALSASFEPFSNKGQTLVVQFTVKHEQNIDCGGGYVKLFPNSLDQTDMHGDSEYNIMFGPDICGPGTKKVHVIFNYKGKNVLINKDIRCKDDEFTHLYTLIVRPDNTYEVKIDNSQVESGSLEDDWDFLPPKKIKDPDASKPEDWDERAKIDDPTDSKPEDWDKPEHIPDPDAKKPEDWDEEMDGEWEPPVIQNPEYKGEWKPRQIDNPDYKGTWIHPEIDNPEYSPDPSIYAYDNFGVLGLDLWQVKSGTIFDNFLITNDEAYAEEFGNETWGVTKAAEKQMKDKQDEEQRLKEEEEDKKRKEEEEAEDKEDDEDKDEDEEDEEDKEEDEEEDVPGQAKDEL
# Variants of: B1
# Conditions: with gbrap_human GABARAP
row,effect of a mutation on the interaction,Variant
1,disrupting interaction,W200A
